Measured values: IntAct's records for PubMed 31515488

B1: DCC-interacting protein 13-alpha (Homo sapiens), Q9UKG1 (parent)
chain: MPGIDKLPIEETLEDSPQTRSLLGVFEEDATAISNYMNQLYQAMHRIYDAQNELSAATHLTSKLLKEYEKQRFPLGGDDEVMSSTLQQFSKVIDELSSCHAVLSTQLADAMMFPITQFKERDLKEILTLKEVFQIASNDHDAAINRYSRLSKKRENDKVKYEVTEDVYTSRKKQHQTMMHYFCALNTLQYKKKIALLEPLLGYMQAQISFFKMGSENLNEQLEEFLANIGTSVQNVRREMDSDIETMQQTIEDLEVASDPLYVPDPDPTKFPVNRNLTRKAGYLNARNKTGLVSSTWDRQFYFTQGGNLMSQARGDVAGGLAMDIDNCSVMAVDCEDRRYCFQITSFDGKKSSILQAESKKDHEEWICTINNISKQIYLSENPEETAARVNQSALEAVTPSPSFQQRHESLRPAAGQSRPPTARTSSSGSLGSESTNLAALSLDSLVAPDTPIQFDIISPVCEDQPGQAKAFGQGGRRTNPFGESGGSTKSETEDSILHQLFIVRFLGSMEVKSDDHPDVVYETMRQILAARAIHNIFRMTESHLLVTCDCLKLIDPQTQVTRLTFPLPCVVLYATHQENKRLFGFVLRTSSGRSESNLSSVCYIFESNNEGEKICDSVGLAKQIALHAELDRRASEKQKEIERVKEKQQKELNKQKQIEKDLEEQSRLIAASSRPNQASSEGQFVVLSSSQSEESDLGEGGKKRESEA
B2: Protein LDOC1 (Homo sapiens), O95751 (parent)
chain: MVDELVLLLHALLMRHRALSIENSQLMEQLRLLVCERASLLRQVRPPSCPVPFPETFNGESSRLPEFIVQTASYMLVNENRFCNDAMKVAFLISLLTGEAEEWVVPYIEMDSPILGDYRAFLDEMKQCFGWDDDEDDDDEEEEDDY
partner: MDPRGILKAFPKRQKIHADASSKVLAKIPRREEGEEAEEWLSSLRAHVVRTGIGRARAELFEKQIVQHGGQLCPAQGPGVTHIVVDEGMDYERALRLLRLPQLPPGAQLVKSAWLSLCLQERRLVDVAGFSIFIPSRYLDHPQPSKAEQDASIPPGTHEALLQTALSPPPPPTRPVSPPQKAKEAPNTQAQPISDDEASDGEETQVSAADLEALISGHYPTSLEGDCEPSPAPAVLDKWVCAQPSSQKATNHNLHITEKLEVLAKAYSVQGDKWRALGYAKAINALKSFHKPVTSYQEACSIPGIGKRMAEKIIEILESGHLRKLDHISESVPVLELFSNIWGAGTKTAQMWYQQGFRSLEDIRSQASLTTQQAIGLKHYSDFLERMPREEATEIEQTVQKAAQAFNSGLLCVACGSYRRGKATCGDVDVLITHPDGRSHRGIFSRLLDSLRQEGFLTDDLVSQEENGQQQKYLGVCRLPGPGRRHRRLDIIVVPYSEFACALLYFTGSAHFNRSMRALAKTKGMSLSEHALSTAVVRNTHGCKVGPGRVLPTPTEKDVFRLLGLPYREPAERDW
B3: Microtubule-associated tumor suppressor candidate 2 (Homo sapiens), Q5JR59-3 (parent)
chain: MGHCCCKPYNCLQCLDKTNESALVKEKELSIELANIRDEVAFHTAKCEKLQKEKEELERRFEDEVKRLGWQQQAELQELEERLQLQFEAEMARLQEEHGDQLLSIRCQHQEQVEDLTASHDAALLEMENNHTVAITILQDDHDHKVQELMSTHELEKKELEENFEKLRLSLQDQVDTLTFQSQSLRDRARRFEEALRKNTEEQLEIALAPYQHLEEDMKSLKQVLEMKNQQIHEQEKKILELEKLAEKNIILEEKIQVLQQQNEDLKARIDQNTVVTRQLSEENANLQEYVEKETQEKKRLSRTNEELLWKLQTGDPTSPIKLSPTSPVYRGSSSGPSSPARVSTTPR
partner: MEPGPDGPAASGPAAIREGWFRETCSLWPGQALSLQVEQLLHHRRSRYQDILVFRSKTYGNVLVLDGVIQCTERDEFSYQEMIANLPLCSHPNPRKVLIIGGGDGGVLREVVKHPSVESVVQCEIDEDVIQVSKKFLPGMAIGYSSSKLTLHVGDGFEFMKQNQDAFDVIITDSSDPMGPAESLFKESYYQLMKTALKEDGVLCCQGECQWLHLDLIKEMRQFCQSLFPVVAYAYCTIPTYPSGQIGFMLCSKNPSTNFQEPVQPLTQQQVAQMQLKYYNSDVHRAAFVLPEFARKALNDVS
B4: Ribonuclease P protein subunit p25-like protein (Homo sapiens), Q8N5L8 (parent)
chain: MEHYRKAGSVELPAPSPMPQLPPDTLEMRVRDGSKIRNLLGLALGRLEGGSARHVVFSGSGRAAGKAVSCAEIVKRRVPGLHQLTKLRFLQTEDSWVPASPDTGLDPLTVRRHVPAVWVLLSRDPLDPNECGYQPPGAPPGLGSMPSSSCGPRSRRRARDTRS
partner: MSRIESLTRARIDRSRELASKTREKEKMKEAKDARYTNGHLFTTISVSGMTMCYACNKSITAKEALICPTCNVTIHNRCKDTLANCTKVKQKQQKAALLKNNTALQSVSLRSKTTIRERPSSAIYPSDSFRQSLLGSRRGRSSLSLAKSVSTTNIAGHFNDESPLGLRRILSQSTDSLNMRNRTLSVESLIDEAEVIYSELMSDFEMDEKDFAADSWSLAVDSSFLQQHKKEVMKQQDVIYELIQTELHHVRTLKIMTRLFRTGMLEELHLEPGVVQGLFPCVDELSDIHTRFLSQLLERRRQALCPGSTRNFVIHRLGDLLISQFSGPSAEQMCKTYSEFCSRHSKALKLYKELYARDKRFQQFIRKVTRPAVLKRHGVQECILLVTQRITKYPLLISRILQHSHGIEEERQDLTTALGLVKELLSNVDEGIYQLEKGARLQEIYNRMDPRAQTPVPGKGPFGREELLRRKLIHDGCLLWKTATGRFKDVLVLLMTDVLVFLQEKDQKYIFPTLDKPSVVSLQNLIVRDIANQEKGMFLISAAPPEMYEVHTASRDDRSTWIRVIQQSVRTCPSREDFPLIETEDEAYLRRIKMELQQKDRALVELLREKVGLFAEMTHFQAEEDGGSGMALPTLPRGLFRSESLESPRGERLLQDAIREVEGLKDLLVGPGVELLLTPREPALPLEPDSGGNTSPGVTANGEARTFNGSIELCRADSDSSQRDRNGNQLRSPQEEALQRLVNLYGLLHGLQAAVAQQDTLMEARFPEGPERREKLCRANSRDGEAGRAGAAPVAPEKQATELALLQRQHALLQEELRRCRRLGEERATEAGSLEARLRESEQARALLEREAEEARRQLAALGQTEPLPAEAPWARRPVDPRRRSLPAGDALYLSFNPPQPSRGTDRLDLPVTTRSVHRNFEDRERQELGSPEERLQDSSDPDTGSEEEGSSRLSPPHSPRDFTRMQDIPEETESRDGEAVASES
B5: cGMP-dependent protein kinase 1 (Homo sapiens), Q13976 (parent)
chain: MSELEEDFAKILMLKEERIKELEKRLSEKEEEIQELKRKLHKCQSVLPVPSTHIGPRTTRAQGISAEPQTYRSFHDLRQAFRKFTKSERSKDLIKEAILDNDFMKNLELSQIQEIVDCMYPVEYGKDSCIIKEGDVGSLVYVMEDGKVEVTKEGVKLCTMGPGKVFGELAILYNCTRTATVKTLVNVKLWAIDRQCFQTIMMRTGLIKHTEYMEFLKSVPTFQSLPEEILSKLADVLEETHYENGEYIIRQGARGDTFFIISKGTVNVTREDSPSEDPVFLRTLGKGDWFGEKALQGEDVRTANVIAAEAVTCLVIDRDSFKHLIGGLDDVSNKAYEDAEAKAKYEAEAAFFANLKLSDFNIIDTLGVGGFGRVELVQLKSEESKTFAMKILKKRHIVDTRQQEHIRSEKQIMQGAHSDFIVRLYRTFKDSKYLYMLMEACLGGELWTILRDRGSFEDSTTRFYTACVVEAFAYLHSKGIIYRDLKPENLILDHRGYAKLVDFGFAKKIGFGKKTWTFCGTPEYVAPEIILNKGHDISADYWSLGILMYELLTGSPPFSGPDPMKTYNIILRGIDMIEFPKKIAKNAANLIKKLCRDNPSERLGNLKNGVKDIQKHKWFEGFNWEGLRKGTLTPPIIPSVASPTDTSNFDSFPEDNDEPPPDDNSGWDIDF
partner: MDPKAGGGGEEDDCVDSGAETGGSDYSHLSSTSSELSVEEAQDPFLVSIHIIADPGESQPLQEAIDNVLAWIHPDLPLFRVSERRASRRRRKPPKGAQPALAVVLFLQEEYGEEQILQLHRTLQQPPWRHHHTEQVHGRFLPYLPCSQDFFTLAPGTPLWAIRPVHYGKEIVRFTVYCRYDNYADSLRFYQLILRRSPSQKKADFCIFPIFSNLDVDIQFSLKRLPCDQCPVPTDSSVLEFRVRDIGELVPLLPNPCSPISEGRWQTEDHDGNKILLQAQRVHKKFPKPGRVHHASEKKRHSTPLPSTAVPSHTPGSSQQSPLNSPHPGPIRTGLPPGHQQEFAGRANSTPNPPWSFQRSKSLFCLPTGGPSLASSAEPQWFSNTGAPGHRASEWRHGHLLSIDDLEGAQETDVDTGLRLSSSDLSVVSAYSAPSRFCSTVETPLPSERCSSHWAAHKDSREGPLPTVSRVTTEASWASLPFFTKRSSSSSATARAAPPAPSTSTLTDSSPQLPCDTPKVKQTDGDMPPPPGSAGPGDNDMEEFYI
B6: Nuclear RNA export factor 3 (Homo sapiens), Q9H4D5 (parent)
chain: MSLPSGHTTGHTDQVVQRRARCWDIYQRRFSSRSEPVNPGMHSSSHQQQDGDAAMHGAHMDSPVRYTPYTISPYNRKGSFRKQDQTHVNMEREQKPPERRMEGNMPDGTLGSWFKITVPFGIKYNEKWLLNLIQNECSVPFVPVEFHYENMHASFFVENASIAYALKNVSGKIWDEDNEKISIFVNPAGIPHFVHRELKSEKVEQIKLAMNQQCDVSQEALDIQRLPFYPDMVNRDTKMASNPRKCMAASLDVHEENIPTVMSAGEMDKWKGIEPGEKCADRSPVCTTFSDTSSNINSILELFPKLLCLDGQQSPRATLCGTEAHKRLPTCKGSFFGSEMLKNLVLQFLQQYYLIYDSGDRQGLLSAYHDEACFSLSIPFNPEDSAPSSFCKFFKDSRNIKILKDPYLRGELLKHTKLDIVDSLSALPKTQHDLSSFLVDMWYQTEWMLCFSVNGVFKEVEGQSQGSVLAFTRTFIATPGSSSSLCIVNDKLFVRDTSHQGTQSALFTLVPTAFSSSVPAFSQEQQKMLPS
partner: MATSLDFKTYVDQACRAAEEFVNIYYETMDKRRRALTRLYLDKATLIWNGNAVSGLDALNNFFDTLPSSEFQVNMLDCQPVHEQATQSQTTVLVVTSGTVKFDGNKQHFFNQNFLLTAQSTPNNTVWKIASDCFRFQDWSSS

Variants of: B1
Conditions: with traf2_human TRAF2, Q12933
Chain of traf2_human TRAF2, Q12933 (Q12933 whole entry): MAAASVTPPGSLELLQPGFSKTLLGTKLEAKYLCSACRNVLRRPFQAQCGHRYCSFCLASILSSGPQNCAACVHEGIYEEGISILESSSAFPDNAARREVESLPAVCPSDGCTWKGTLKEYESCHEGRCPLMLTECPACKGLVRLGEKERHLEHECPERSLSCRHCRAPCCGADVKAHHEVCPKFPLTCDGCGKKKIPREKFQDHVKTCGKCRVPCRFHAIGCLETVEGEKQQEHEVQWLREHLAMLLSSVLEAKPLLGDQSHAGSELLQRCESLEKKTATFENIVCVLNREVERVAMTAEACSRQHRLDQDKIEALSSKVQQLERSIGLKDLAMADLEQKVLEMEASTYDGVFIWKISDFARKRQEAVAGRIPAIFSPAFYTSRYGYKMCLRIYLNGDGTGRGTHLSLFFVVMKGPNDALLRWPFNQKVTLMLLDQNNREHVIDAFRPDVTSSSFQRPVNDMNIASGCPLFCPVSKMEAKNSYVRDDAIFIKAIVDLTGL
With E643Q the “effect of a mutation on the interaction” value was “with no effect”.
With E67G the “effect of a mutation on the interaction” value was “with no effect”.

Variants of: B1
Conditions: with maga9_human MAGEA9, P43362
Chain of maga9_human MAGEA9, P43362 (P43362 whole entry): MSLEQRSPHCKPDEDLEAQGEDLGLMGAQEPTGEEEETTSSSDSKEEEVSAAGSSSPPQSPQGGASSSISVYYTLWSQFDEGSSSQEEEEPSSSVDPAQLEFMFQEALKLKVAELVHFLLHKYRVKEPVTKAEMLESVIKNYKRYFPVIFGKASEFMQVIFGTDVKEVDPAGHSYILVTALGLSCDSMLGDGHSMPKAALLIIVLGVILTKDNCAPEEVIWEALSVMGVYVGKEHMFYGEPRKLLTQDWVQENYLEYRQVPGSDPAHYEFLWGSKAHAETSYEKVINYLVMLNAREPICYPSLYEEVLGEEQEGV
With E643Q the “effect of a mutation on the interaction” value was “with no effect”.
E67G was tested, and the “effect of a mutation on the interaction” value was “with no effect”.

Variants of: B2
Conditions: with dpoll_human POLL
For L12H, the “effect of a mutation on the interaction” value was “disrupting interaction strength”.

Variants of: B3
Conditions: with spee_human SRM
For A89V, the “effect of a mutation on the interaction” value was “with no effect”.

Variants of: B4
Conditions: with arhg2_human ARHGEF2, Q92974
For R155Q, the “effect of a mutation on the interaction” value was “with no effect”.
In the case of D127N, the “effect of a mutation on the interaction” value is reported as “with no effect”.

Variants of: B5
Conditions: with FAM124A
N267S was tested, and the “effect of a mutation on the interaction” value was “with no effect”.

Variants of: B6
Conditions: with nxt2_human NXT2, Q9NPJ8
With R409W the “effect of a mutation on the interaction” value was “disrupting interaction strength”.

Variants of: B6
Conditions: with nxt2_human NXT2, Q9NPJ8
Remark: another data set of the same source
With T9K the “effect of a mutation on the interaction” value was “with no effect”.
